In the supplement of paper PMC11780869:

System: Bacillus subtilis
Experiment: cleaved RNA product abundance (RNA/gDNA barcode ratio) relative to median wild-type variant (ratio to wild type); higher = more accumulation of the downstream cleavage product
Details: cleavage site: cggR-gapA (positions -7 to +36 mutated)
Summary of the method: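 Cleaved product abundance was measured with barcoded reporter mRNAs (truncated aprE or tetM) carrying mutagenized RNase Y cleavage-site windows in the B. subtilis chromosome. Cultures in LB at 37°C grew from OD600 0.0003 to 0.3. Gel-selected cleaved RNA was reverse transcribed and barcode-sequenced with genomic DNA barcodes, and the RNA:gDNA barcode ratio per construct was scaled to the median construct bearing the unmutated site.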

[1] = experiment (reporter, strain, medium): exp 4a: truncated aprE reporter, strain BJT201 with 2% xylose (RNase J1 expressed)
[2] = experiment (reporter, strain, medium): exp 2b: truncated aprE reporter, strain BJT200

Question: With “ACAGACGAAGGAGCCGCAAAGAAGTTATTAAAGGATGTATAATCCCTCAATATAAATATCTCTCACTTATTTAAA” as the sequence, how does the “cleaved RNA product abundance” value [1] read?
Answer: The value was 0.177.

Question: “ACAGACGAAGGAGCCGCAAAGAAGTTATTAAAGGATTAATAATCCCTCAATATAAATATCTCTCACTTATTTAAA” was tested. Which “cleaved RNA product abundance” value [2] did it give?
Answer: Its value is 0.154.

Question: What about the “cleaved RNA product abundance” value [1] of the same sequence?
Answer: The value was 0.205.

Question: Which results are given for “ACAGACGAAGGAGCCGCAAAGAAGTTATTAAAGGCTGAATAATCCCTCAATATAAATATCTCTCACTTATTTAAA”?
Answer: cleaved RNA product abundance [2]: 0.0927; cleaved RNA product abundance [1]: 0.0571

Question: Which “cleaved RNA product abundance” value [2] does the source give for “ACAGACGAAGGAGCCGCAAAGAAGTTATTAAAGGGATGAATAATCCCTCAATATAAATATCTCTCACTTATTTAA” here?
Answer: Its value is 0.283.

Question: What about the “cleaved RNA product abundance” value [1] of the same sequence?
Answer: The value was 0.35.

Question: Which “cleaved RNA product abundance” value [1] does the source give for “ACAGACGAAGGAGCCGCAAAGAAGTTATTAAAGGGTGAATAATCCCTCAATATAAATATCTCTCACTTATTTAAA” here?
Answer: The value was 0.202.

Question: How did the “cleaved RNA product abundance” value [1] turn out when “ACAGACGAAGGAGCCGCAAAGAAGTTATTAAAGGTTGAATAATCCCTCAATATAAATATCTCTCACTTATTTAAA” was run?
Answer: Its value is 0.0853.

Question: With “ACAGACGAAGGAGCCGCAAAGAAGTTATTAAAGTATGAATAAACCCTCAATATAAATATCTCTCACTTATTTAAA” as the sequence, how does the “cleaved RNA product abundance” value [2] read?
Answer: Its value is 0.102.

Question: For “ACAGACGAAGGAGCCGCAAAGAAGTTATTAAAGTATGAATAATCCCTCAATATAAATATCTCTCACTTATTTAAA”, which “cleaved RNA product abundance” value [2] is on record?
Answer: The value was 0.0922.

Question: What about the “cleaved RNA product abundance” value [1] of the same sequence?
Answer: The value was 0.124.

Question: For “ACAGACGAAGGAGCCGCAAAGAAGTTATTAAATGATGAATAATCCATCAATATAAATATCTCTCACTTATTTAAA”, which “cleaved RNA product abundance” value [1] is on record?
Answer: Its value is 0.162.

Question: Which results are given for “ACAGACGAAGGAGCCGCAAAGAAGTTATTAAATGATGAATAATCCCTCAATATAAATATCTCTCACTTATTTAAA”?
Answer: cleaved RNA product abundance [2]: 0.0939; cleaved RNA product abundance [1]: 0.1

Question: With “ACAGACGAAGGAGCCGCAAAGAAGTTATTAAATGATGAATAATCCCTCAATATATATATCTCTCACTTATTTAAA” as the sequence, how does the “cleaved RNA product abundance” value [1] read?
Answer: The value was 0.13.

Question: How did the “cleaved RNA product abundance” value [2] turn out when “ACAGACGAAGGAGCCGCAAAGAAGTTATTAACAGATGAATAATCCCTCAATATAAATATCTCTCACTTATTTAAA” was run?
Answer: Its value is 0.0822.

Question: What about the “cleaved RNA product abundance” value [1] of the same sequence?
Answer: Its value is 0.0984.

Question: Which results are given for “ACAGACGAAGGAGCCGCAAAGAAGTTATTAACCGATGAATAATCCCTCAATATAAATATCTCTCACTTATTTAAA”?
Answer: cleaved RNA product abundance [2]: 0.0926; cleaved RNA product abundance [1]: 0.0751

Question: How did the “cleaved RNA product abundance” value [2] turn out when “ACAGACGAAGGAGCCGCAAAGAAGTTATTAACGAATGAATAATCCCTCAATATAAATATCTCTCACTTATTTAAA” was run?
Answer: The value was 0.0836.

Question: What about the “cleaved RNA product abundance” value [1] of the same sequence?
Answer: The value was 0.0881.

Question: With “ACAGACGAAGGAGCCGCAAAGAAGTTATTAACGAATTAATAATCCCTCAATATAAATATCTCTCACTTATTTAAA” as the sequence, how does the “cleaved RNA product abundance” value [1] read?
Answer: Its value is 0.0842.

Question: With “ACAGACGAAGGAGCCGCAAAGAAGTTATTAACGCATGAATAATCCCTCAATATAAATATCTCTCACTTATTTAAA” as the sequence, how does the “cleaved RNA product abundance” value [1] read?
Answer: Its value is 0.0743.

Question: “ACAGACGAAGGAGCCGCAAAGAAGTTATTAACGGAAGAATAATCCCTCAATATAAATATCTCTCACTTATTTAAA” was tested. Which “cleaved RNA product abundance” value [1] did it give?
Answer: Its value is 0.152.

Question: Which results are given for “ACAGACGAAGGAGCCGCAAAGAAGTTATTAACGGACGAATAATCCCTCAATATAAATATCTCTCACTTATTTAAA”?
Answer: cleaved RNA product abundance [2]: 0.0519; cleaved RNA product abundance [1]: 0.0823

Question: With “ACAGACGAAGGAGCCGCAAAGAAGTTATTAACGGAGGAATAATCCCTCAATATAAATATCTCTCACTTATTTAAA” as the sequence, how does the “cleaved RNA product abundance” value [1] read?
Answer: Its value is 0.171.

Question: Which “cleaved RNA product abundance” value [2] does the source give for “ACAGACGAAGGAGCCGCAAAGAAGTTATTAACGGATAAATAATCCCTCAATATAAATATCTCTCACTTATTTAAA” here?
Answer: The value was 0.103.

Question: What about the “cleaved RNA product abundance” value [1] of the same sequence?
Answer: Its value is 0.188.

Question: For “ACAGACGAAGGAGCCGCAAAGAAGTTATTAACGGATCAATAATCCCTCAATATAAATATCTCTCACTTATTTAAA”, which “cleaved RNA product abundance” value [2] is on record?
Answer: Its value is 0.0668.

Question: What about the “cleaved RNA product abundance” value [1] of the same sequence?
Answer: The value was 0.104.

Question: What does the source list for “ACAGACGAAGGAGCCGCAAAGAAGTTATTAACGGATGAAAAATCCCTCAATATAAATATCTCTCACTTATTTAAA”?
Answer: cleaved RNA product abundance [2]: 0.104; cleaved RNA product abundance [1]: 0.133

Question: Which “cleaved RNA product abundance” value [2] does the source give for “ACAGACGAAGGAGCCGCAAAGAAGTTATTAACGGATGAACAATCCCTCAATATAAATATCTCTCACTTATTTAAA” here?
Answer: Its value is 0.0917.

Question: How did the “cleaved RNA product abundance” value [1] turn out when “ACAGACGAAGGAGCCGCAAAGAAGTTATTAACGGATGAAGAATCCCTCAATATAAATATCTCTCACTTATTTAAA” was run?
Answer: Its value is 0.17.

Question: For “ACAGACGAAGGAGCCGCAAAGAAGTTATTAACGGATGAATAAACCCTCAATATAAATATCTCTCACTTATTTAAA”, which “cleaved RNA product abundance” value [2] is on record?
Answer: Its value is 0.0962.

Question: And the “cleaved RNA product abundance” value [1]?
Answer: Its value is 0.12.

Question: Which “cleaved RNA product abundance” value [1] does the source give for “ACAGACGAAGGAGCCGCAAAGAAGTTATTAACGGATGAATAACCCCTCAATATAAATATCTCTCACTTATTTAAA” here?
Answer: The value was 0.0802.

Question: “ACAGACGAAGGAGCCGCAAAGAAGTTATTAACGGATGAATAATACCTCAATATAAATATCTCTCACTTATTTAAA” was tested. Which “cleaved RNA product abundance” value [2] did it give?
Answer: The value was 0.0908.

Question: What about the “cleaved RNA product abundance” value [1] of the same sequence?
Answer: Its value is 0.136.

Question: Which “cleaved RNA product abundance” value [2] does the source give for “ACAGACGAAGGAGCCGCAAAGAAGTTATTAACGGATGAATAATCACTCAATATAAATATCTCTCACTTATTTAAA” here?
Answer: Its value is 0.0895.

Question: What about the “cleaved RNA product abundance” value [1] of the same sequence?
Answer: Its value is 0.106.

Question: For “ACAGACGAAGGAGCCGCAAAGAAGTTATTAACGGATGAATAATCCATCAATATAAATATCTCTCACTTATTTAAA”, which “cleaved RNA product abundance” value [2] is on record?
Answer: The value was 0.138.

Question: And the “cleaved RNA product abundance” value [1]?
Answer: The value was 0.233.

Question: How did the “cleaved RNA product abundance” value [1] turn out when “ACAGACGAAGGAGCCGCAAAGAAGTTATTAACGGATGAATAATCCCACAATATAAATATCTCTCACTTATTTAAA” was run?
Answer: Its value is 0.133.

Question: Which “cleaved RNA product abundance” value [1] does the source give for “ACAGACGAAGGAGCCGCAAAGAAGTTATTAACGGATGAATAATCCCCCAATATAAATATCTCTCACTTATTTAAA” here?
Answer: The value was 0.173.

Question: For “ACAGACGAAGGAGCCGCAAAGAAGTTATTAACGGATGAATAATCCCGCAATATAAATATCTCTCACTTATTTAAA”, which “cleaved RNA product abundance” value [1] is on record?
Answer: Its value is 0.392.

Question: How did the “cleaved RNA product abundance” value [1] turn out when “ACAGACGAAGGAGCCGCAAAGAAGTTATTAACGGATGAATAATCCCTAAATATAAATATCTCTCACTTATTTAAA” was run?
Answer: Its value is 0.225.

Question: What about the “cleaved RNA product abundance” value (experiment (reporter, strain, medium): exp 6: tetM reporter, strain 168) of the same sequence?
Answer: The value was 0.194.

Question: Which “cleaved RNA product abundance” value [2] does the source give for “ACAGACGAAGGAGCCGCAAAGAAGTTATTAACGGATGAATAATCCCTCAAAATAAATATCTCTCACTTATTTAAA” here?
Answer: The value was 0.105.

Question: And the “cleaved RNA product abundance” value [1]?
Answer: The value was 0.158.

Question: How did the “cleaved RNA product abundance” value [1] turn out when “ACAGACGAAGGAGCCGCAAAGAAGTTATTAACGGATGAATAATCCCTCAACATAAATATCTCTCACTTATTTAAA” was run?
Answer: Its value is 0.172.

Question: Which “cleaved RNA product abundance” value [1] does the source give for “ACAGACGAAGGAGCCGCAAAGAAGTTATTAACGGATGAATAATCCCTCAATAAAAATATCTCTCACTTATTTAAA” here?
Answer: Its value is 0.08.

Question: Which “cleaved RNA product abundance” value [1] does the source give for “ACAGACGAAGGAGCCGCAAAGAAGTTATTAACGGATGAATAATCCCTCAATACAAATATCTCTCACTTATTTAAA” here?
Answer: Its value is 0.0789.

Question: “ACAGACGAAGGAGCCGCAAAGAAGTTATTAACGGATGAATAATCCCTCAATATAAAAATCTCTCACTTATTTAAA” was tested. Which “cleaved RNA product abundance” value [2] did it give?
Answer: The value was 0.156.

Question: And the “cleaved RNA product abundance” value [1]?
Answer: The value was 0.116.

Question: With “ACAGACGAAGGAGCCGCAAAGAAGTTATTAACGGATGAATAATCCCTCAATATAAATATCTCTCACTTATTAAAG” as the sequence, how does the “cleaved RNA product abundance” value [1] read?
Answer: Its value is 0.172.
